The values that follow come from patent publication US20240400698A1, “ANTI-CHEMOKIN LIKE RECEPTOR 1 ANTIBODIES AND THEIR THERAPEUTIC APPLICATIONS” (OSE IMMUNOTHERAPEUTICS, priority 2018, published 2024).

The subject of assay [1] is mice M1 or M2 macrophages. The assay can be described thus: Cytokine secretion by mice M1 or M2 macrophages (ELISA), FIG. 15. In kind it is cell-based. The following applies: ELISA. As to the method: FIG. 15. Study of the inflammatory cytokine secretion by human macrophages during CMKLR1 activation. After differentiation of human macrophages M1 or M2, cells were incubated in presence of medium, isotype control, anti-CMKLR1 antibodies (H6 and BZ194), C15 peptides, 2G1 anti-CMKLR1 antibody or RvE1. Secretion of IL10, CCL17 and IL12p40 were assessed by ELISA. Cytokines secretion is measured in the supernatant by using an ELISA kit from BD. Supernatant were diluted at 1/10 for IL10 cytokines, 1/50 for CCL17 cytokines and 1/100 for IL12p40 cytokines. A. IL10 cytokine secretion by M2 cells. B. CCL17 cytokine secretion by M2 cells. C. represents IL 12 cytokine secretion by M1 cells.
Bone marrow cells were harvested and cultured in the RPMI medium supplemented with 10% FBS, glutamine and antibiotics containing macrophages colony-stimulating factor (M-CSF) at 100 ng/ml for 5 days inducing the macrophages differentiation. The macrophages were harvested and cultured for 2 days with either IFNg (20 ng/ml) and LPS (100 ng/ml) inducing the M1 polarization or with IL-4 (20 ng/ml) inducing the M2 polarization. Treatments were added during macrophage polarization at 2 μg/ml.
After differentiation of mice M1 or M2 as explain above, cells were incubated in presence of medium, isotype control, anti-CMKLR1 antibodies: clones H6 and BZ194, C15 peptides, 2G1 the anti-CMKLR1 antibody of interest or RvE1 were used. Then the secretion of IL10, CCL17 and IL12p40 was assessed by ELISA. Cytokines secretion was measured in the supernatant using an ELISA kit from BD. Supernatants were diluted at 1/10 for IL10 cytokines, 1/50 for CCL17 cytokines and 1/100 for IL12p40 cytokines.
Cytokines secretion was detected by ELISA according to the BD manufacturer instructions. Briefly, supernatants were diluted in the appropriate buffer and incubated for 2 hours after overnight coating with capture antibody and saturation. […] TMB supplied by BD Bioscience was used as substrate and colorimetric reaction was read with TECAN.
In general terms: In an ELISA, binding on a coated surface is turned into a signal by an enzyme label.

Assay [2] has as its system Akt and Erk proteins (CMKLR1 pathway). The assay can be described thus: Western blot of Akt and Erk phosphorylation in mice M1 macrophages. In kind it is cell-based. The following applies: FIG. 18; mice M1, 2 μg/mL, after 10 to 30 minutes of incubation. As to the method: FIG. 18. Study of the CMKLR1 pathway activation: Akt and Erk phosphorylation. Western blot analysis of the ERK and AKT activation pathway after 5, 10 and 30 minutes of mice M1 cell incubation with 2G1 or RvE1. The Phosphorylated protein Akt or Erk were assessed using P-Akt antibody or P-Erk antibody (p44/42). A. Erk and Akt activation with RvE1. B. Erk and Akt activation with 2G1.
Mice pro-inflammatory macrophages (M1) were generated from bone marrow with M-CSF and polarized with IFN-gamma (IFNg) and LPS. Briefly, bone marrow cells were collected by flushing the femoral bone and cultured with 100 ng/mL of mM-CSF for 5 days and then polarized with 20 ng/ml of IFNg and 100 ng/mL of LPS for 24 h. Then, they were deprived of FBS for 24 hours with RPMI FBS 2% medium. Finally, mice M1 were treated with 2 μg/mL of 2G1 antibody at different times: 5, 10 and 30 minutes. Cells were collected in a RIPA buffer. The protein concentration was measured by a BCA protein kit assay. Proteins were denatured by heating at 95° C. for 5 minutes and diluted in DTT and Laemmli solution. After migration and transfer, the nitrocellulose membrane was blocked with 5% BSA in TBS-T for 2 hours. […] Western blot Images were quantified by Multi Gauge software
Background: In western blotting, separated proteins are transferred to a membrane and probed.

Assay [3] relates to MC38 cells. The assay can be described thus: MC38 colon carcinoma model. The class given is in vivo, mice. The following applies: FIG. 9D, 20 μg/injection i.p. for 3 weeks, vs isotype control. As to the method:
(§1) FIG. 9. […] Two mice models were studied, and animals received isotype control antibody (3G8) (x) or anti-CMKLR1 (2G1) ( ) at 20 μg/injection intraperitoneally for 3 weeks. A-C. Results in the CT26 colon carcinoma model comparing single treatment with p84 (A) and 2G1 (B) with combined therapy with both antibodies (C). D: Results in the MC38 colon carcinoma model.
(§2) 8-week old C57bl/6J male mice were anesthetized with 3% of isoflurane. Mice were shaved on the flank and MC38 cells (0.5·10^6 cells/mouse) cell lines were injected subcutaneously with an insulinic syringe (30 Gauges) in 50 μL of PBS. Another model was used, in which 8-week old Balb/c male mice were anesthetized with 3% of isoflurane. Mice were shaved on the flank and CT26 cells (1·10^6 cells/mouse) were injected subcutaneously with an insulinic syringe (30 Gauges) in 50 μL of PBS.
(§3) The agonistic anti-CMKLR1 antibody (2G1) or an anti-SIRPa antibody (p84-anti-mouse SIRPa from Merck Millipore) (SIRPa is a new checkpoint inhibitor) were injected once a week (20 μg/injection) intraperitoneally for 3 weeks starting at d4 after tumor inoculation alone or combined.

In assay [4] the target is T1, CMKLR1 EL3 loop (SEQ ID No: 18) (Homo sapiens, UniProt Q99788).
T1 sequence (Q99788 275-307 limits assumed): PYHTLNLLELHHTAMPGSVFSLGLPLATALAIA
As to the kind of experiment: ELISA binding on CMKLR1 peptide. As to conditions: OD at 450 nm, FIG. 12, vs isotype control. As to the method:
FIG. 12. Binding analysis of the anti-CMKLR1 antibody on a CMKLR1 peptide by ELISA. The binding of the 2G1 antibody ( ) on the CMKLR1 EL3 loop (SEQ ID No: 18) was compared to the isotype control antibody (3G8) (x) by measuring the OD at 450 nm by ELISA.
CMKLR1 peptide (273NH2-[…]-COOH305) (SEQ ID No: 18) (5 μg/ml) was coated in borate buffer overnight. Saturation was performed with PBS-Tween 0.1%-Gelatin 0.25% for 2 hours at 37° C. Then, 2G1 or hIgG1 antibodies were added at different concentrations for 2 hours at 37° C. […] The colorimetric reaction was read with TECAN.

Assay [5] concerns CT26 cells. The assay can be described thus: CT26 colon carcinoma model. The class given is in vivo, mice. The following applies: FIG. 9A-C, 20 μg/injection i.p. for 3 weeks. As to the method:
as §1, §2, §3

Assay [6] relates to NOD female mice, spontaneous type 1 diabetes. The assay can be described thus: Type 1 diabetes NOD model. The class given is in vivo. As to conditions: 20 μg/injection i.p. three times a week for 2 weeks. From the text: FIG. 5. […] Mice develop spontaneous diabetes. […] A. Percentage of survival, B. individual representation of blood glucose concentration in mg/dL. C. pooled representation of blood glucose concentration in mg/dL.
8 weeks-old NOD female mice were obtained from Charles River laboratory. These mice develop a spontaneous type 1 diabetes at age between 12 to 20 weeks. The diabetes initiation can be measured by the high glycaemia.

B1: 2G1: chimeric anti-CMKLR1 antibody, murine variable regions (SEQ ID No: 10 and 17), human IgG1 constant regions; VH-CDR3 variant LI (antibody, V domains shown)
VH: METDTLLLWVLLLWVPGSTGDEVQLVASGGGLVQPGGSLKLSCAASGFTFSSYGMSWVRQTPDRRLELVATINRYGGSTYYPDSVKGRFTISRDNAKNTLYLQMSSLKSEDTAMYYCPRLIYYGNEGDSWGQGTTLTVSS
VL: METDTLLLWVLLLWVPGSTGDQIVLTQSPAIMSASPGEKVTMTCSASSSVSFMHWYQQKSGTSPKRWIYDTTKLTSGVPARFSGSGSGTFYSLTISSMEAEDAATYYCQQWNSKPPLTFGPGTKLELKR
modifications: human IgG1 constant regions
notes: VH-CDR3 variant LI
In the case of B1, in assay [1] (FIG. 15A), the “IL10 secretion by M2 type macrophages” value is recorded as “induced”. Further, in assay [1] (FIG. 15B), the “CCL17 secretion by M2 type macrophages” value was “induced”. Besides, the “pro-inflammatory cytokines (IL12) from M1 type macrophages” value in assay [1] (FIG. 15C) was “decreased”. Moreover, in assay [2], the “activation (phosphorylation) of Akt protein” value is on record as “able to induce the activation” and the “activation (phosphorylation) of Erk protein” value is given as “able to induce the activation”. Besides, in assay [3], the tumor growth result is recorded as “did show an efficacy in the inhibition of the tumor growth”. Further, the “binding to the polypeptide forming the loop EL3 of CMKLR1” value in assay [4] is reported as “able to bind the polypeptide forming the loop EL3 of CMKLR1”. Also, the “tumor development / tumor growth” value in assay [5] was “did not demonstrate a clinical effect on the tumor development”. Further, in assay [6] (FIG. 5A), the survival percentage result is “better survival percentage”. Also, the “glycaemia (blood glucose concentration)” value in assay [6] (FIG. 5B-C) is on record as “almost normal glycaemia”.
